Measurements as given in US20190112362A1 (published 2019).
Residue numbers refer to the chain shown, from its start. One block for each binder: values may come before it.

Biological target: Monomeric cynomolgus monkey Tau (cynomolgus monkey, UniProt P57786 2-459 (rhesus entry))
Assay: SPR, hIgG captured, cynomolgus Tau monomer analyte, 1:1 model

Sequence of Monomeric cynomolgus monkey Tau (P57786 other isoform, or with tags, fused parts or gaps limits assumed, form in doubt): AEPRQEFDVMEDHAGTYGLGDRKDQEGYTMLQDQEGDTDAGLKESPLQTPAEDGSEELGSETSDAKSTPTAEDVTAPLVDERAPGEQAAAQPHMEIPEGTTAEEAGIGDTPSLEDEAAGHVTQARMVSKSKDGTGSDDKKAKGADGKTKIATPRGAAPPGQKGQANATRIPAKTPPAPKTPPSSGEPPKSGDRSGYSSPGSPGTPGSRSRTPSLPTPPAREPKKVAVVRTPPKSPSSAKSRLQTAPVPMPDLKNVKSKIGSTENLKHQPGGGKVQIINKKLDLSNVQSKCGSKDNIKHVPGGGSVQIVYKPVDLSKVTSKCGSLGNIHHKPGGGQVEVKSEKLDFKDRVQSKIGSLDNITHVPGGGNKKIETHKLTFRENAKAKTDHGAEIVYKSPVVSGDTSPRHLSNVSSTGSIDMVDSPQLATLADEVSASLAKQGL

Kd: 700 pM | koff: 0.001 s⁻¹ | kon: 1.7e+06 M⁻¹ s⁻¹
B1: hu37D3.v28.A4 (antibody, V domains shown)
VH: EVQLVESGGGLVQPGGSLRLSCAASGLIFRSYGMSWVRQAPGKGLEWVATINSGGTYTYYPDSVKGRFTISRDNSKNTLYLQMNSLRAEDTAVYYCANSYSGAMDYWGQGTLVTVSS
VL: DDVLTQTPLSLPVTPGQPASISCRSSQSIVHSNGNTYLEWYLQKPGQSPQLLIYKVSNRFSGVPDRFSGSGSGTDFTLKISRVEAEDVGVYYCFQGSLVPWTFGQGTKVEIK
notes: also called hu37D3-H9.v28.A4

Kd: 600 pM | koff: 0.001 s⁻¹ | kon: 1.5e+06 M⁻¹ s⁻¹
B2: hu37D3-H9.v5 (antibody, V domains shown)
VH: B1 VH
VL: B1 VL with D1E, L38F
notes: Kappa2 framework

Kd: 800 pM | kon: 2e+06 M⁻¹ s⁻¹
B3: hu37D3-H9.v1 (antibody, V domains shown)
VH: B1 VH
VL: EDQLTQSPSSLSASVGDRVTITCRSSQSIVHSNGNTYFEWYQQKPGKSPKLLIYKVSNRFSGVPSRFSGSGSGTDFTLTISSLQPEDFATYYCFQGSLVPWTFGQGTKVEIK
notes: Kappa1 framework
